{
  "source": "patent US20140072613A1",
  "about": "“Compositions and Methods for Treating Cutaneous Scarring” (priority 2012, published 2014)",
  "key": {"[1]": {"target": "Abl(H8396P)(h) (human), P00519", "sequence (P00519 27-1130, stated change not applied)": "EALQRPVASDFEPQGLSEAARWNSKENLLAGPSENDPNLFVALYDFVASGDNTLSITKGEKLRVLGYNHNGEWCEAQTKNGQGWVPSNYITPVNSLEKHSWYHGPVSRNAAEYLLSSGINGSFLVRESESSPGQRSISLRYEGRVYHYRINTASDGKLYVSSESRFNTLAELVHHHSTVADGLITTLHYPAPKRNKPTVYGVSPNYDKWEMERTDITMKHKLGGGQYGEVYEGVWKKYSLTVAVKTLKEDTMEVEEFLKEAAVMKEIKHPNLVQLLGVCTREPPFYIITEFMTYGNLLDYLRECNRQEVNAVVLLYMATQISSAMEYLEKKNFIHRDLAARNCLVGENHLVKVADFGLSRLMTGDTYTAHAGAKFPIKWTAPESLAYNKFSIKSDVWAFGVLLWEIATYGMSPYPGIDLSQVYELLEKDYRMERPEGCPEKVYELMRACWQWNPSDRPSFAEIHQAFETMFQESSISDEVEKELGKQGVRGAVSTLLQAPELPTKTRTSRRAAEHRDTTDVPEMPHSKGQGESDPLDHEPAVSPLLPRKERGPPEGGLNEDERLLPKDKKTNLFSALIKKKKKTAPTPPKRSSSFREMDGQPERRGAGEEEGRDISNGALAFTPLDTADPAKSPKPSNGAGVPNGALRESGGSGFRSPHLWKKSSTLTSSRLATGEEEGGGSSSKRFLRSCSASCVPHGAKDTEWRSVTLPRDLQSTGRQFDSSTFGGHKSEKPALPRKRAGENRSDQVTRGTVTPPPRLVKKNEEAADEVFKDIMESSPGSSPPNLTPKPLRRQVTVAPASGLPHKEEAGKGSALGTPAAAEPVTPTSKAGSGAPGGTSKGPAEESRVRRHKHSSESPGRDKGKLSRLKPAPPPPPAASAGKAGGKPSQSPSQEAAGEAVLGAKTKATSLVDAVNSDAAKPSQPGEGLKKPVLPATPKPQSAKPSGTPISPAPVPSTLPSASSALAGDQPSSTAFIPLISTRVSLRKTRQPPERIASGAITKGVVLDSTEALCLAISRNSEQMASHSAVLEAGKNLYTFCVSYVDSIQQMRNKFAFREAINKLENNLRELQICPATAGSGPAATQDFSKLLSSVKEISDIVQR", "assay": "cell-based or functional assay"}, "CK1δ(h) (human), P48730": {"target": "CK1δ(h) (human), P48730", "sequence (P48730 1-294, stated change not applied)": "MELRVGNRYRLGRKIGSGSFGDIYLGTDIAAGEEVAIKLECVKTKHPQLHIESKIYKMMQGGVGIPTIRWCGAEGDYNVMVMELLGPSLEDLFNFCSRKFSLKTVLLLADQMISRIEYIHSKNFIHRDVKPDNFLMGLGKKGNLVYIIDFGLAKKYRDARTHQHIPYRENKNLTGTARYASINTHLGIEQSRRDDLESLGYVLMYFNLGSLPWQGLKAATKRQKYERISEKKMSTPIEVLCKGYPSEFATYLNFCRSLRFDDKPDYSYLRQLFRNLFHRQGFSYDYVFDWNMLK", "assay": "cell-based or functional assay"}, "[2]": {"target": "CaMKIIδ(h) (human), Q13557", "sequence (Q13557 whole entry, stated change not applied)": "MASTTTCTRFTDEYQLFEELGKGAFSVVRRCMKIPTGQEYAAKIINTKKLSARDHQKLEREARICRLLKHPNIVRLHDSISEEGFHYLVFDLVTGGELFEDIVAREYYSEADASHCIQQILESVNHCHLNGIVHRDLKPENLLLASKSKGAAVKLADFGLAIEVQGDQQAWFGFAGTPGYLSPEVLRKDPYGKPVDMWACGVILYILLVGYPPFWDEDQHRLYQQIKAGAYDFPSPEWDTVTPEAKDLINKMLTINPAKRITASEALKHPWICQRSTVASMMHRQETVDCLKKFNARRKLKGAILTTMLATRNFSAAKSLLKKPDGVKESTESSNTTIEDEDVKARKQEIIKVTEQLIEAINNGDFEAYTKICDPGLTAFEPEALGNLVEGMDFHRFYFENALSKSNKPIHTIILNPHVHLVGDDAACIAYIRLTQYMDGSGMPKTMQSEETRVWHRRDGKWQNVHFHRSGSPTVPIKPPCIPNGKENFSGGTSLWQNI", "assay": "cell-based or functional assay"}, "[3]": {"target": "CaMKIδ(h) (human), Q8IU85", "sequence (Q8IU85 whole entry, stated change not applied)": "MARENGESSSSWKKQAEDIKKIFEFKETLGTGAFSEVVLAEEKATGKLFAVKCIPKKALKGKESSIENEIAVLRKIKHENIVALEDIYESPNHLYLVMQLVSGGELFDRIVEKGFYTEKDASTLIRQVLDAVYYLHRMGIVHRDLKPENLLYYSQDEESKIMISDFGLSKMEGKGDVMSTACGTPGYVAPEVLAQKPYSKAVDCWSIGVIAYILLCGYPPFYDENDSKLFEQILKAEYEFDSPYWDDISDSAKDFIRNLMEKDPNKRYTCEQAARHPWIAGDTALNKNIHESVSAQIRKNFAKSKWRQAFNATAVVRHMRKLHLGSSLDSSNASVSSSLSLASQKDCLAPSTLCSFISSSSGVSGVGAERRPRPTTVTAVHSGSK", "assay": "cell-based or functional assay"}, "PKCβI(h) (human), P05771": {"target": "PKCβI(h) (human), P05771", "sequence (P05771 whole entry)": "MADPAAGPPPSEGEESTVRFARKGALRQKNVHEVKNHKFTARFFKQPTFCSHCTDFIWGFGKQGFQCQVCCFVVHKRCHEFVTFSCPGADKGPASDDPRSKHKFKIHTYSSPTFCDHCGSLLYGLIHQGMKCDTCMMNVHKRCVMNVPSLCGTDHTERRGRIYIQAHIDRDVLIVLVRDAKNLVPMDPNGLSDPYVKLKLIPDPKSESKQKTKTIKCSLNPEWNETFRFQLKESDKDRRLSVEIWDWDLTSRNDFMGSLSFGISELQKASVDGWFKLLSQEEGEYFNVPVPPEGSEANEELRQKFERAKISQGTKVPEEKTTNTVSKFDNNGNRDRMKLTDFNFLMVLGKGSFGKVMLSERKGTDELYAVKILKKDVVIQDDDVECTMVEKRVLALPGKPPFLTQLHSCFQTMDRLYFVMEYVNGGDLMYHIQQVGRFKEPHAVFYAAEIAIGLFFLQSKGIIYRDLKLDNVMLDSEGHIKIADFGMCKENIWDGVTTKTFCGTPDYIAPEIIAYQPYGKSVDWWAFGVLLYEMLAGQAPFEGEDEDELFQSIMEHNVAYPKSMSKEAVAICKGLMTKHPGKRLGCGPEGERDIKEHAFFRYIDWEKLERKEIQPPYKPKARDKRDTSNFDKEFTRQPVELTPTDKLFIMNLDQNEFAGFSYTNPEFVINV", "assay": "cell-based or functional assay"}, "PKG1α(h) (human), Q13976": {"target": "PKG1α(h) (human), Q13976", "sequence (Q13976 whole entry)": "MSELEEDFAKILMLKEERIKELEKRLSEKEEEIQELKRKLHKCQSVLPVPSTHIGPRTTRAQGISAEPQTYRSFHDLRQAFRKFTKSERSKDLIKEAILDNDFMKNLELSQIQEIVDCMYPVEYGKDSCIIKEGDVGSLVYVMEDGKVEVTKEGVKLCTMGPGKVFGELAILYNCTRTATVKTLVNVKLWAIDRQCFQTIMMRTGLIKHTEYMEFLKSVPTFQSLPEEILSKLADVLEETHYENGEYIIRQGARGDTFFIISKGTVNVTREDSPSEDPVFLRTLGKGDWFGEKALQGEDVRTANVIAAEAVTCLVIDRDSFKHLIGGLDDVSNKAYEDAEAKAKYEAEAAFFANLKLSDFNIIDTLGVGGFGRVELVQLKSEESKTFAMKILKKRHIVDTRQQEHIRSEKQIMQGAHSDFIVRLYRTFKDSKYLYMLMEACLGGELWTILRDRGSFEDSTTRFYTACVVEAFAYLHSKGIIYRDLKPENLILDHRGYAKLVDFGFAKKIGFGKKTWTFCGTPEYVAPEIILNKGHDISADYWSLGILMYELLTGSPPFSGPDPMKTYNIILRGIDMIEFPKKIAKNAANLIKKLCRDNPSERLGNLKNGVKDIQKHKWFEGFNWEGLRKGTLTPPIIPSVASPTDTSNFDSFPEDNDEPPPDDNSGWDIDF", "assay": "cell-based or functional assay"}, "CaMKI(h) (human), Q14012": {"target": "CaMKI(h) (human), Q14012", "assay": "cell-based or functional assay"}, "DMPK(h) (human), Q09013": {"target": "T1, DMPK(h) (human), Q09013", "T1 chain": "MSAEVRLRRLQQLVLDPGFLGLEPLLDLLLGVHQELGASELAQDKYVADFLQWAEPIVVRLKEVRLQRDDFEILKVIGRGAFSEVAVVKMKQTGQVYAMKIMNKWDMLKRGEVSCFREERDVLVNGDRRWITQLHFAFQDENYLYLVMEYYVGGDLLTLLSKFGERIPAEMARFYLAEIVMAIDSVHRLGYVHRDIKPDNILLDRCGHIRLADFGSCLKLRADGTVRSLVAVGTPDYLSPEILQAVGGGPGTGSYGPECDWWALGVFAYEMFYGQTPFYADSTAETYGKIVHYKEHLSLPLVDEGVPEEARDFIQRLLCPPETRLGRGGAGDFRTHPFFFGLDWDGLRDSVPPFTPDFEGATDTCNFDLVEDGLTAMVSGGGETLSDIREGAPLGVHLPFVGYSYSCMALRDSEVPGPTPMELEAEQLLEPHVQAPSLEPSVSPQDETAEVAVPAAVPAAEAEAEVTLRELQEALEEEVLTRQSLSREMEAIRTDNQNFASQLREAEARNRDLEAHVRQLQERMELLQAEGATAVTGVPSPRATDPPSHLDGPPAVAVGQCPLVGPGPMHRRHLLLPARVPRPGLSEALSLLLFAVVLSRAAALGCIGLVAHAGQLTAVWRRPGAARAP", "assay": "cell-based or functional assay"}, "DRAK1(h) (human), Q9UEE5": {"target": "T2, DRAK1(h) (human), Q9UEE5", "T2 chain": "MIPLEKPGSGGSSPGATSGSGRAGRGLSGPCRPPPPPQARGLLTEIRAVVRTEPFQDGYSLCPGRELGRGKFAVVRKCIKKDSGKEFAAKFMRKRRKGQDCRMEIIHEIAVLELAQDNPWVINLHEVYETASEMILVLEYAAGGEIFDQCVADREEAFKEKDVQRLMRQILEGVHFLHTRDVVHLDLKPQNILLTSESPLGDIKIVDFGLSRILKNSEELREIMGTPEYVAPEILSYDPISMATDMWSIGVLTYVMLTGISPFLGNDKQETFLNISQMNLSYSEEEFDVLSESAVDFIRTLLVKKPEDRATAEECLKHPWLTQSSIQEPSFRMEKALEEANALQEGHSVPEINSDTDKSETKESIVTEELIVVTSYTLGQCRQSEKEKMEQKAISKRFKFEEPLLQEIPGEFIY", "assay": "cell-based or functional assay"}, "[4]": {"target": "EGFR(L861Q)(h) (human), P00533", "assay": "cell-based or functional assay"}, "EphA2(h) (human), P29317": {"target": "T3, EphA2(h) (human), P29317", "T3 chain": "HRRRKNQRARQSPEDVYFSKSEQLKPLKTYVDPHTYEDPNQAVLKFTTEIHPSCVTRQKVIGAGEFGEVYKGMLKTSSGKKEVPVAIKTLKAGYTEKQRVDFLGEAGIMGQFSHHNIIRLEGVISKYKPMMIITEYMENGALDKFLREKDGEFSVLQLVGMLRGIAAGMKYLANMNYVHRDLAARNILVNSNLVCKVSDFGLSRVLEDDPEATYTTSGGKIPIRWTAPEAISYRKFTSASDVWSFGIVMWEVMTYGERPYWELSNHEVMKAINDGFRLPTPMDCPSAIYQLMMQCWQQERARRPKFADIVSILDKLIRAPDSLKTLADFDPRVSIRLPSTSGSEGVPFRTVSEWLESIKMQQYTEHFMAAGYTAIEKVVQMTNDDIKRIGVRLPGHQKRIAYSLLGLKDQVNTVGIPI", "assay": "cell-based or functional assay"}, "FGFR2(h) (human), P21802": {"target": "T4, FGFR2(h) (human), P21802", "T4 chain": "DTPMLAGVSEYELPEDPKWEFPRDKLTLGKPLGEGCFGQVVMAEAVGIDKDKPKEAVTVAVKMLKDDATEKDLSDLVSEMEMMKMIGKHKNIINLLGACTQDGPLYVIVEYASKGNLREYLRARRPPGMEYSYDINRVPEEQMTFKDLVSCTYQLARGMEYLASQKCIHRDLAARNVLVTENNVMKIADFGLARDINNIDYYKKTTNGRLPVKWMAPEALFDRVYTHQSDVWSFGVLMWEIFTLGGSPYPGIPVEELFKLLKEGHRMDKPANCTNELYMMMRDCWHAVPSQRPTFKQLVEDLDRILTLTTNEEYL", "assay": "cell-based or functional assay"}, "Fes(h) (human), P07332": {"target": "Fes(h) (human), P07332", "assay": "cell-based or functional assay"}, "Fgr(h) (human), P09769": {"target": "Fgr(h) (human), P09769", "assay": "cell-based or functional assay"}, "LOK(h) (human), O94804": {"target": "LOK(h) (human), O94804", "assay": "cell-based or functional assay"}, "[5]": {"target": "MAPKAP-K2(h) (human), P49137", "assay": "cell-based or functional assay"}, "[6]": {"target": "MAPKAP-K3(h) (human), Q16644", "assay": "cell-based or functional assay"}, "MSK1(h) (human), O75582": {"target": "MSK1(h) (human), O75582", "assay": "cell-based or functional assay"}, "Pim-1(h) (human), P11309": {"target": "Pim-1(h) (human), P11309", "assay": "cell-based or functional assay"}, "TrkB(h) (human), Q16620": {"target": "TrkB(h) (human), Q16620", "sequence (Q16620 455-822 limits assumed)": "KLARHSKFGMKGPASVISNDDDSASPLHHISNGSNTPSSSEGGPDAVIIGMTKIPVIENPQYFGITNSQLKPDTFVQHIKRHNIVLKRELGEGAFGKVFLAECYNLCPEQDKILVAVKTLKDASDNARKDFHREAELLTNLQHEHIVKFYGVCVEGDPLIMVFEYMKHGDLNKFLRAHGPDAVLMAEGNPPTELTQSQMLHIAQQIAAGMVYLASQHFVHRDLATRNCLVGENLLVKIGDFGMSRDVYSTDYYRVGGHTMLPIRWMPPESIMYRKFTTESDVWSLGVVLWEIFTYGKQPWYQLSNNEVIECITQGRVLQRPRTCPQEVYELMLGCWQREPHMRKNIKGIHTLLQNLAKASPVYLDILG", "assay": "cell-based or functional assay"}, "Yes(h) (human), P07947": {"target": "Yes(h) (human), P07947", "sequence (P07947 whole entry)": "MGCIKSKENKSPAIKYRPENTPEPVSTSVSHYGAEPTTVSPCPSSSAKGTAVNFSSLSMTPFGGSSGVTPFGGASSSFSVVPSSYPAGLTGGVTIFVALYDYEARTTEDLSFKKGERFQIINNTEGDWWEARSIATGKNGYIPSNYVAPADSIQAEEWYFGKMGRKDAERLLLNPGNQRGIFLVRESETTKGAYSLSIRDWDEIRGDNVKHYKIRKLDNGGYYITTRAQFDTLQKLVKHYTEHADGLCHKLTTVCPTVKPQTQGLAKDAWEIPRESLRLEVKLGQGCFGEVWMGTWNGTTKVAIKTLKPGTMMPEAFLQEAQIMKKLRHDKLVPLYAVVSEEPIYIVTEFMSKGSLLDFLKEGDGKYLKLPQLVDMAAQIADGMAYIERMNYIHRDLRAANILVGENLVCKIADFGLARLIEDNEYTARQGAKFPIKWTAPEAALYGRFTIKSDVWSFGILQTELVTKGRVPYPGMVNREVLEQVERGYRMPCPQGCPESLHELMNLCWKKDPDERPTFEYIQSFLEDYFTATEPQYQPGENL", "assay": "cell-based or functional assay"}, "[7]": {"target": "Angiotensin 2 (off-target receptor)", "assay": "Cerep binding assay, competition with a radiolabelled ligand"}, "[8]": {"target": "Bombesin (off-target receptor)", "assay": "Cerep binding assay, competition with a radiolabelled ligand"}, "[9]": {"target": "Melanocortin 4 (off-target receptor) (Homo sapiens (Human)), P32245", "assay": "Cerep binding assay, competition with a radiolabelled ligand"}, "[10]": {"target": "T5, Neurokinin 2 (off-target receptor) (Homo sapiens (Human)), P21452", "T5 chain": "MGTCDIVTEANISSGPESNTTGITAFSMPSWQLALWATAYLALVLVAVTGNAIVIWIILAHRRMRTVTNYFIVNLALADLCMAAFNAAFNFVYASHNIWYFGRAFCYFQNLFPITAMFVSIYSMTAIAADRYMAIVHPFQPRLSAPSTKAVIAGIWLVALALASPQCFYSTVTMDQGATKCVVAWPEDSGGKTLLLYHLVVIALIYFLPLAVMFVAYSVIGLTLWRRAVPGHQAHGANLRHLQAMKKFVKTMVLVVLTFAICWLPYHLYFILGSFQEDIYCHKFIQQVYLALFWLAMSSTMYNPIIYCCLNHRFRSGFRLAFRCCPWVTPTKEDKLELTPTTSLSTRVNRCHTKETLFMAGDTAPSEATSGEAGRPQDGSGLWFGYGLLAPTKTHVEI", "assay": "Cerep binding assay, competition with a radiolabelled ligand"}, "[11]": {"target": "Neuropeptide Y (off-target receptor)", "assay": "Cerep binding assay, competition with a radiolabelled ligand"}, "[12]": {"target": "Serotonin 2A (off-target receptor) (Homo sapiens (Human)), P28223", "sequence (P28223 whole entry)": "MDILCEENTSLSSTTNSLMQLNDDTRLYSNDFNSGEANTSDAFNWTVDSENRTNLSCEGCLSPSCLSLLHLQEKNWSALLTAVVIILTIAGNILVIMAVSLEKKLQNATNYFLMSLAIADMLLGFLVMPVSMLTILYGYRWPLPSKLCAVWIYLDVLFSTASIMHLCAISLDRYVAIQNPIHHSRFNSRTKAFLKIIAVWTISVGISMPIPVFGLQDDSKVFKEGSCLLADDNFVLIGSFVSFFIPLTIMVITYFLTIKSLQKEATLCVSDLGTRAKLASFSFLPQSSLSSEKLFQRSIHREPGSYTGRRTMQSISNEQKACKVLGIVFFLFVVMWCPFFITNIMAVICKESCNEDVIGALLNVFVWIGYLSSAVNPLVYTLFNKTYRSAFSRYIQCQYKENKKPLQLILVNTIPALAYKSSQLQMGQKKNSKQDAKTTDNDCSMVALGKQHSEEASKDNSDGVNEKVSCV", "assay": "Cerep binding assay, competition with a radiolabelled ligand"}, "[13]": {"target": "Small conductance calcium activated K+ channel", "assay": "Cerep binding assay, competition with a radiolabelled ligand"}, "[14]": {"target": "Vasoactive intestinal peptide (off-target receptor)", "assay": "Cerep binding assay, competition with a radiolabelled ligand"}},
  "data": [
    {"binder": "FAKLAARLYRKALARQLGVAA", "note": "[MMI-0300]", "values": [
      {"measurement": "% activity, 100 µM", "setting": "[1]", "result": 101, "unit": "%"},
      {"measurement": "% activity, 100 µM", "setting": "CK1δ(h) (human), P48730", "result": 92, "unit": "%"},
      {"measurement": "% activity, 100 µM", "setting": "[2]", "result": 1, "unit": "%"},
      {"measurement": "% activity, 100 µM", "setting": "[3]", "result": 10, "unit": "%"},
      {"measurement": "% activity, 100 µM", "setting": "PKCβI(h) (human), P05771", "result": 78, "unit": "%"},
      {"measurement": "% activity, 100 µM", "setting": "PKG1α(h) (human), Q13976", "result": 64, "unit": "%"}
    ]},
    {"binder": "KAFAKLAARLYRKALARQLGVAA", "note": "[MMI-0400]", "values": [
      {"measurement": "% activity, 100 µM", "setting": "[1]", "result": 105, "unit": "%"},
      {"measurement": "% activity, 100 µM", "setting": "CK1δ(h) (human), P48730", "result": 93, "unit": "%"},
      {"measurement": "% activity, 100 µM", "setting": "[2]", "result": 2, "unit": "%"},
      {"measurement": "% activity, 100 µM", "setting": "[3]", "result": 17, "unit": "%"},
      {"measurement": "% activity, 100 µM", "setting": "PKCβI(h) (human), P05771", "result": 78, "unit": "%"},
      {"measurement": "% activity, 100 µM", "setting": "PKG1α(h) (human), Q13976", "result": 58, "unit": "%"}
    ]},
    {"binder": "YARAAARQARAKALARQLGVAA (modifications not checked)", "note": "[MMI-0100]", "values": [
      {"measurement": "IC50 (kinase activity)", "setting": "CaMKI(h) (human), Q14012", "result": 11.7, "unit": "µM"},
      {"measurement": "IC50 (kinase activity)", "setting": "[3]", "result": 45.8, "unit": "µM"},
      {"measurement": "IC50 (kinase activity)", "setting": "DMPK(h) (human), Q09013", "result": 34.1, "unit": "µM"},
      {"measurement": "IC50 (kinase activity)", "setting": "DRAK1(h) (human), Q9UEE5", "result": 78.3, "unit": "µM"},
      {"measurement": "IC50 (kinase activity)", "setting": "[4]", "result": 128, "unit": "µM"},
      {"measurement": "IC50 (kinase activity)", "setting": "EphA2(h) (human), P29317", "result": 181, "unit": "µM"},
      {"measurement": "IC50 (kinase activity)", "setting": "FGFR2(h) (human), P21802", "result": 172, "unit": "µM"},
      {"measurement": "IC50 (kinase activity)", "setting": "Fes(h) (human), P07332", "result": 174, "unit": "µM"},
      {"measurement": "IC50 (kinase activity)", "setting": "Fgr(h) (human), P09769", "result": 141, "unit": "µM"},
      {"measurement": "IC50 (kinase activity)", "setting": "LOK(h) (human), O94804", "result": 47.6, "unit": "µM"},
      {"measurement": "IC50 (kinase activity)", "setting": "[5]", "result": 12.1, "unit": "µM"},
      {"measurement": "IC50 (kinase activity)", "setting": "[6]", "result": 15.8, "unit": "µM"},
      {"measurement": "IC50 (kinase activity)", "setting": "MSK1(h) (human), O75582", "result": 102, "unit": "µM"},
      {"measurement": "IC50 (kinase activity)", "setting": "Pim-1(h) (human), P11309", "result": 71.7, "unit": "µM"},
      {"measurement": "IC50 (kinase activity)", "setting": "TrkB(h) (human), Q16620", "result": 4.6, "unit": "µM"},
      {"measurement": "IC50 (kinase activity)", "setting": "Yes(h) (human), P07947", "result": 114, "unit": "µM"},
      {"measurement": "% inhibition", "setting": "[7]", "result": "< 30", "unit": "%"},
      {"measurement": "% inhibition", "setting": "[8]", "result": "< 30", "unit": "%"},
      {"measurement": "% inhibition", "setting": "[9]", "result": "< 30", "unit": "%"},
      {"measurement": "% inhibition", "setting": "[10]", "result": "< 30", "unit": "%"},
      {"measurement": "% inhibition", "setting": "[11]", "result": "< 30", "unit": "%"},
      {"measurement": "% inhibition", "setting": "[12]", "result": "< 30", "unit": "%"},
      {"measurement": "% inhibition", "setting": "[13]", "result": "< 30", "unit": "%"},
      {"measurement": "% inhibition", "setting": "[14]", "result": "< 30", "unit": "%"}
    ]}
  ]
}
